We go through 25 sequences from the supplement of paper PMC9732359.

± gives the uncertainty stated by the source.

The nature of this data set: protein stability index of a GFP-peptide fusion (yeast GPS) (PSI 1-4); higher = more stable; sorted into four equal gates, so the index is relative within each strain. The essentials: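 Plasmids in a pooled yeast library fused tiled 17-residue yeast protein peptides downstream of GFP and also expressed Cherry. Mid-log cultures grown without leucine were sorted into four equal gates by GFP/Cherry fluorescence ratio. Each gate's plasmids were PCR-amplified and Illumina-sequenced, and reads were matched to strains by barcodes. The protein stability index is derived by multiplying each gate's read frequency by its gate number and summing the results.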

For the sequence IYDFHKMENLMRLIKRV [YJL039C/NUP192], the protein stability index is, setting by setting: (doa10∆) 2.58 ± 0.097; (pdr5∆) 2.67 ± 0.079; (san1∆) 2.3 ± 0.062; (ubr1∆) 2.57 ± 0.073.
The matching figures for EAHPTKVKNFGVWVRYD [RPL20A]: 3.02 ± 0.087, 2.96 ± 0.056, 3.01 ± 0.044 and 2.9 ± 0.047.
The matching figures for GKAATAKETHTKPSETP [YOR098C/NUP1]: 2.57 ± 0.098, 2.84 ± 0.094, 2.76 ± 0.077 and 2.37 ± 0.091.
The matching figures for IPDLSIQNDIYLNDLMI [RPN12]: 2.99 ± 0.046, 3.06 ± 0.042, 2.99 ± 0.044 and 3.02 ± 0.046.
For ETIKSLEDPYKYHYKEE [CSN9], the protein stability index was determined as 3.17 ± 0.09 (doa10∆), 3.13 ± 0.082 (pdr5∆), 3.09 ± 0.07 (san1∆) and 3.14 ± 0.06 (ubr1∆).
Consider HSLAYLLENFANFKTSK [RRP6], for which the protein stability index runs as follows: (doa10∆) 2.68 ± 0.22; (pdr5∆) 2.05 ± 0.14; (san1∆) 2.81 ± 0.19; (ubr1∆) 2.53 ± 0.17.
The matching figures for EQEIENNGLPMKNKAET [ITC1]: 2.81 ± 0.065, 3.06 ± 0.066, 3 ± 0.045 and 2.9 ± 0.067.
The matching figures for ILHGSKSQEQREHSLQL [PRP28]: 3.11 ± 0.1, 2.69 ± 0.089, 2.92 ± 0.067 and 2.35 ± 0.041.
The matching figures for RIVNHKTKLWGFKWLNK [LIN1]: 2.87 ± 0.13, 3.1 ± 0.13, 2.87 ± 0.3 and 2.88 ± 0.091.
Regarding SNRLHPPDIHPNLGPQL [GRR1], the protein stability index reads like this: (doa10∆) 3.12 ± 0.074; (pdr5∆) 3.09 ± 0.059; (san1∆) 3.01 ± 0.054; (ubr1∆) 2.98 ± 0.049.
The matching figures for REGLIDTAVKTAETGYI [RPO21]: 1.13 ± 0.058, 1.37 ± 0.099, 1.23 ± 0.18 and 1.13 ± 0.051.
The matching figures for EKYAAAAPAATSAASGD [RPP0]: 2.47 ± 0.097, 2.15 ± 0.074, 1.88 ± 0.13 and 2.78 ± 0.048.
The matching figures for EEQLDLLSAILDPSKSK [MED11]: 3.09 ± 0.099, 3.18 ± 0.12, 3.32 ± 0.11 and 3.64 ± 0.2.
Sequence RVVMMKYDRKVPSPTGE [RPO21] displayed a protein stability index (doa10∆) of 2.69 ± 0.11, a protein stability index (pdr5∆) of 3.11 ± 0.069, a protein stability index (san1∆) of 2.69 ± 0.079 and a protein stability index (ubr1∆) of 2.89 ± 0.043.
The matching figures for TIERSLIEEEVEQDEGQ [YCS4]: 3.36 ± 0.24, 3.27 ± 0.17, 3.28 ± 0.084 and 3.5 ± 0.17.
The matching figures for IEDLRADINSNRLSNPQ [YOR098C/NUP1]: 2.64 ± 0.09, 2.8 ± 0.076, 2.72 ± 0.06 and 2.93 ± 0.061.
Take DESYARAYRIIRAHQTE [QCR7]: the protein stability index was found to be 3.17 ± 0.17 (doa10∆), 3.43 ± 0.17 (pdr5∆), 3.14 ± 0.22 (san1∆) and 3.41 ± 0.091 (ubr1∆).
The matching figures for PCLSRSCTKCPQIVVPD [DIS3]: 2.42 ± 0.034, 2.56 ± 0.031, 2.63 ± 0.033 and 2.57 ± 0.03.
Turning to PVNTGVLHVSAKGKSGV [RRP40], the protein stability index is, setting by setting: (doa10∆) 2.48 ± 0.1; (pdr5∆) 2.1 ± 0.097; (san1∆) 2.62 ± 0.14; (ubr1∆) 2.64 ± 0.13.
The matching figures for VREHYLRSDIPCLSRSC [DIS3]: 2.6 ± 0.051, 2.72 ± 0.051, 2.59 ± 0.051 and 2.44 ± 0.033.
The matching figures for MNVQDRRRLLGPAAAKP [MTR3]: 3.23 ± 0.11, 3.1 ± 0.11, 2.96 ± 0.085 and 2.97 ± 0.089.
The matching figures for TLSNGLIASHYGVSFFT [BRR2]: 2.74 ± 0.055, 2.84 ± 0.045, 2.39 ± 0.059 and 2.83 ± 0.04.
RERRAALTDFERFQVMV [RPL14A]: the protein stability index was 1.77 ± 0.12 (doa10∆), 2.24 ± 0.094 (pdr5∆), 1.41 ± 0.13 (san1∆) and 1.8 ± 0.07 (ubr1∆).
With EHKTPELISFKERTKSL [YIL149C/MLP2], the protein stability index (doa10∆) came out at 2.85 ± 0.066, the protein stability index (pdr5∆) came out at 2.95 ± 0.076, the protein stability index (san1∆) came to 2.93 ± 0.076 and the protein stability index (ubr1∆) was found to be 3.22 ± 0.079.
The matching figures for ITMPATNGKPDMAILER [ARP7]: 3.17 ± 0.059, 3.08 ± 0.059, 3.06 ± 0.041 and 3.18 ± 0.042.
